Results as given in US20090087478A1 (PROGENICS PHARMACEUTICALS NEVADA, published 2009).
Like-named read-outs stand apart in the source and are kept apart here.

How the values were obtained:
[1] = target: T1, ToxA:2459-2710 (C-terminal eleven repeats of the toxin A CWB domain) (Clostridium difficile, UniProt P16154 2459-2710)
[2] = target: T1, ToxA:2459-2710 (C-terminal eleven …); test: SPR, apparent KD
[3] = target: T2, ToxB:1807-2366 (CWB domain of C. difficile toxin B, expressed in E. coli) (Clostridium difficile, UniProt P18177 1807-2366); test: SPR, toxin domain immobilised, apparent Kd
T2 construct: range 1807-2366

B1: Antibody 227 (or 3359), murine monoclonal anti-toxin A antibody (antibody, V domains shown)
VH: EVQLVESGGGLMKPGGSLKLSCAASGFAFGSYDMSWVRQTPEKRLEWVAYISSGGGITFYPDSVRGRFTISRDNAKNSLYMEMSSLRSEDTAMYYCARWDWDLFAYWGQGTLVTVSA
VL: DIKMTQSPSSMYTSLGERVTITCKASQDINSCLSWFQQKPGKSPKALIFRANILVDGVPSRFSGSGSGQDYSLTISSLEYEDLGIYYCLQYDEFPWTFGGGTRLEIK
B1 was tested, and the Kd [1] was 12 nM.

B2: Antibody 3358 (or 543), murine monoclonal anti-toxin A antibody (antibody, V domains shown)
VH: QVQLQQPGAELVKPGASVRLSCKAGGYTFTSYWLHWVKQRPGQGLEWIGMIHPNSGSYDYSETFRTKATLTVDKSSDTAYMQLTSLTSEDSAVYYCARGGSNYDIFAYWGQGTTLTVSS
VL: NIVMTQSPKSMSMSVGERVTFNCRASENVGTYVFWYQQKPEQSPRLLIYGASNRYTGVPDRFTGSGSATDFTLTISGVQAEDLADYHCGQSYRHLTFGGGTKLEIK
B2 was tested, and the Kd [1] was 0.7 nM and the Kd [2] was under 30 nM.

B3: rPBA-3, chimeric recombinant form of anti-toxin A monoclonal antibody PBA-3 (wildtype, plasmids BD12584 heavy and BD12585 light) (antibody, V domains shown)
VH: QVQLQQSGPELVKPGASVRISCKASGFTFTSYHVNWVKQRPGQGLEWIGWIYPGNVNTEYNEKFKGKATLTADKSSSTAYMQLSSLTSEDSAVYFCASHEYYGSDWYFDVWGAGTTVTVSS
VL: DAVMTQTPLSLPVSLGDQASISCRSSQSLENRNGNTYLNWYLQKPGQSPQLLIYRVSNRFSGVLDRFSGSGSGTDFTLKISRVEAEDLGVYFCLQVTHVPYTFGGGTKLEIK
For B3, the Kd [1] was 60 nM.

B4: Antibody F87, murine monoclonal anti-toxin B antibody (antibody, V domains shown)
VH: QVQLQQPGTELVKPGASVKLSCKASGYTFTNYWMHWVKQRPGQGLEWVGNINPSNGGTNYNEKFKSKATLTVDKSSSTAYMQLSSLTSEDSAFYYCARGRGPPYYSDYWGQGSTLTVSS
VL: NIQMTQSPASLSASVGETVTITCRASGNIHNYLAWYQQKQGKSPQLLVYNAKTLADGVPSRFSGSGSGTQYSLKINSLQPEDFGSYYCQHFWSTPFTFGSGTKLEIK
B4 was tested, and the Kd [3] was 0.05 nM.
